Test results taken from the RNAGym collection of RNA variant scans (doi:10.1073/pnas.2313332121).

B1: TPR t1 (parent)
chain: GACCAAUCUGCCCUCAGAGCUCGAGAACAUCUUCGGAUGCAGAGGAGGCAGGCUUCGGUGGCGCGAUAGCGCCAACGUCCUCAACCUCCAAUGCAUCCCACCACAUGAUGAUGCCUGAAGAGCCUUGGUUUUUUG

Variants of: B1
Experiment: polymerase ribozyme fitness, log enrichment relative to wild type (log ratio); higher = more active; in vitro selection for triplet polymerase activity
Summary of the method: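 Each subunit of a heterodimeric triplet polymerase ribozyme was represented by a PCR-built, transcribed mutant library that underwent triplicate single-round in vitro selection with frozen incubation at −7 °C. Extended constructs were recovered by gel excision, streptavidin-bead capture and RT-PCR, and Illumina sequencing of input and output libraries kept genotypes with ≥10 input reads and ≥1 read per output. Fitness is the logarithm of genotype enrichment relative to wild-type enrichment, from inverse-variance-weighted replicate averages, with a logarithm base of 2.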

Variant | polymerase ribozyme fitness (log ratio)
U32G A43C C73U C97G G117A | -6.86
C31U U129G | -5.03
C31G G42U G113U | -5.66
C31U C73G | -4.48
U33A A37U U55C G63U A100C | -7.2
C31U U38A A68C C72U C76G U112A G117C | -6.6
U30C C56A C82U C94U G113C | -5.15
C31G C53A G107C | -1.38
C31A G120C | -4.32
U30A A95G A121U | -3.78
U32C C34U G39C | -5.23
C31A G44U G47C U78G G120C G127U | -6.6
C31U C53U C72U A103U | -6.73
C31G C80G A100U C101G A103U G120C | -7.23
C31A U54A C89A A121U | -7.04
U32C G42U A43U U87C C94A C101U C102U | -5.8
U32C C82G U87A | -2.42
U32A C34A C64U C86G C114A U133C | -5.96
C31U G61A C123G | -3.22
U33A A68U | -7.2
A29U U112A U126G | -2.25

Variant | polymerase ribozyme fitness (log ratio)
U30C C72U U87A U112A | -2.41
C31G G48U C72U C86G A100C G120C | -7.02
A29U G60C C89A G110A | -5.77
C31A U112C | -3.86
C31U C53G C124A | -3.5
C31G G122A | -5.66
U32G G35A C98A C99U U109A | -6.04
U32G A68U C70U C80A C101U A111U U126G | -8.12
C31A C70A A83C G113U A118G | -6.98
U32A C114G | -4.17
C31G U55C G60A U116C | -6.66
A29U G47A C62U C82U G117C | -5.79
U33A U112C G122C | -2.34
U32C U109G | -4.99
C31U A46G C49A G60A A105C G110A | -5.83
U32A U112A | -2.37
U30C G61A | -2.02
A29U G117A | -3.25
U32C A75G C124A | 1.81
A29U G45U | -3.1
U30A G52C | -5.66

Variant | polymerase ribozyme fitness (log ratio)
C31U A37U C49G A84U C104U G113U U133G | -6.55
C31U U87C G113U C123G U132A | -5.61
U32C A50G A118U U131G | -1.27
A29U G60A U78C C102A U112C | -3.58
U32C G57U G110A | -2
U30G | -5.83
U30A | -4.65
U30C | -1.66
U33A A90C | -6.85
U32C C49G G52C U96C | -1.52
U32C C72G | -0.273
U32C C72A | 0.0616
U32C G36A A83C | -3.09
C31U G60A G107A | -1.03
U33A A84U C97U | -4.91
U32C C73U A118G | -0.657
A29U G61A G127C | -3.2
C31U U32A G47C G61C G63A C115U | -7.14
U32G A50G G69U C88G A121C | -3.17
C31A U96G A121G | -4.67
C31G C114A | -6.73

Variant | polymerase ribozyme fitness (log ratio)
U30C G44A C53G | -5.41
C31U G44C G60A | -5.87
U32C G52U U81G | -4.15
C31G G71U C94G A121G U132C | -7.12
U32A G61A C123G | -1.69
U32C U106G U112G | -0.955
C31U G60A G61A C123G | -6.05
A29U G52U C76A C123U G135U | -3.34
C31A U106G G107U | -1.91
A29U U130G | -2.07
A29U U96G U130C | -2.74
U32A C56G G60C C62A A121C | -6.89
A29U G48U C72G G120A | -3.12
U32C C56U G60A C88A | -5.77
C31G C53G A90U G113A | -6.88
U33A G48C | -5.1
U30A A118U | -5.54
U30C A41G U78A A91G A108G | -2.61
C31G G45C C64G G113U | -5.01
U30C A37C C73G U96A C115U | -5.56
